The labels stand for the following.
B1: Tumor protein p73, residues 487 to 549; numbered along this chain, O15350 (parent)
chain: YHADPSLVSFLTGLGCPNCIEYFTSQGLQSIYHLQNLTIEDLGALKIPEQYRMTIWRGLQDLK

± gives the uncertainty stated by the source.

Variants of B1 are the subject of this data set. The experiment in a line: abundance fitness (aPCA) (normalised: wild type 0, dead -1); higher = more abundant; growth selection in yeast, the domain comes from the species named. To be noted: Homo sapiens.
With YHADPSLHSFLTGLGCPNCIEYFTSQGLQSIYHLQNLTIEDLGALKIPEQYRMTIWRGLQDLK, the abundance fitness was -0.024 ± 0.079. As to YHADPSLWSFLTGLGCPNCIEYFTSQGLQSIYHLQNLTIEDLGALKIPEQYRMTIWRGLQDLK, the abundance fitness is 0.083 ± 0.036. Under YHADPSLTSFLTGLGCPNCIEYFTSQGLQSIYHLQNLTIEDLGALKIPEQYRMTIWRGLQDLK stands 0.117 ± 0.046; under YHADPSLGSFLTGLGCPNCIEYFTSQGLQSIYHLQNLTIEDLGALKIPEQYRMTIWRGLQDLK, 0.228 ± 0.032; under YHADPSLQSFLTGLGCPNCIEYFTSQGLQSIYHLQNLTIEDLGALKIPEQYRMTIWRGLQDLK, 0.037 ± 0.046.

As for YHADPSLSSFLTGLGCPNCIEYFTSQGLQSIYHLQNLTIEDLGALKIPEQYRMTIWRGLQDLK, the abundance fitness is 0.005 ± 0.042. Consider YHADPSLCSFLTGLGCPNCIEYFTSQGLQSIYHLQNLTIEDLGALKIPEQYRMTIWRGLQDLK, for which the abundance fitness amounted to 0.006 ± 0.058. As to YHADPSLDSFLTGLGCPNCIEYFTSQGLQSIYHLQNLTIEDLGALKIPEQYRMTIWRGLQDLK, the abundance fitness came out at 0.143 ± 0.15.

As for YHADPSLYSFLTGLGCPNCIEYFTSQGLQSIYHLQNLTIEDLGALKIPEQYRMTIWRGLQDLK, the abundance fitness was -0.016 ± 0.086. Take YHADPSLFSFLTGLGCPNCIEYFTSQGLQSIYHLQNLTIEDLGALKIPEQYRMTIWRGLQDLK: the abundance fitness was -0.045 ± 0.079. For YHADPSLKSFLTGLGCPNCIEYFTSQGLQSIYHLQNLTIEDLGALKIPEQYRMTIWRGLQDLK, the abundance fitness is 0.235 ± 0.04. Turning to YHADPSLESFLTGLGCPNCIEYFTSQGLQSIYHLQNLTIEDLGALKIPEQYRMTIWRGLQDLK, the abundance fitness was 0.222 ± 0.043. In the case of YHADPSLASFLTGLGCPNCIEYFTSQGLQSIYHLQNLTIEDLGALKIPEQYRMTIWRGLQDLK, the abundance fitness amounted to 0.106 ± 0.061.

With YHADPSLPSFLTGLGCPNCIEYFTSQGLQSIYHLQNLTIEDLGALKIPEQYRMTIWRGLQDLK, the abundance fitness worked out at 0 ± 0.064. Turning to YHADPSLNSFLTGLGCPNCIEYFTSQGLQSIYHLQNLTIEDLGALKIPEQYRMTIWRGLQDLK, the abundance fitness is -0.052 ± 0.056. In the case of YHADPSLMSFLTGLGCPNCIEYFTSQGLQSIYHLQNLTIEDLGALKIPEQYRMTIWRGLQDLK, the abundance fitness turned out to be 0.137 ± 0.04. For the variant YHADPSLLSFLTGLGCPNCIEYFTSQGLQSIYHLQNLTIEDLGALKIPEQYRMTIWRGLQDLK, the abundance fitness was found to be 0.137 ± 0.034. For the variant YHADPSLRSFLTGLGCPNCIEYFTSQGLQSIYHLQNLTIEDLGALKIPEQYRMTIWRGLQDLK, the abundance fitness worked out at 0.132 ± 0.033. For YHADPSLISFLTGLGCPNCIEYFTSQGLQSIYHLQNLTIEDLGALKIPEQYRMTIWRGLQDLK, the abundance fitness was -0.053 ± 0.05. In the case of YHADPSLVSFDTGLGCPNCIEYFTSQGLQSIYHLQNLTIEDLGALKIPEQYRMTIWRGLQDLK it was -1.14 ± 0.22; in that of YHADPSLVSFGTGLGCPNCIEYFTSQGLQSIYHLQNLTIEDLGALKIPEQYRMTIWRGLQDLK, -0.923 ± 0.075. On to YHADPSLVSFKTGLGCPNCIEYFTSQGLQSIYHLQNLTIEDLGALKIPEQYRMTIWRGLQDLK, for which the abundance fitness was -0.681 ± 0.089. In the case of YHADPSLVSFCTGLGCPNCIEYFTSQGLQSIYHLQNLTIEDLGALKIPEQYRMTIWRGLQDLK, the abundance fitness is -0.13 ± 0.049. With YHADPSLVSFETGLGCPNCIEYFTSQGLQSIYHLQNLTIEDLGALKIPEQYRMTIWRGLQDLK, the abundance fitness was -0.825 ± 0.1. As for YHADPSLVSFFTGLGCPNCIEYFTSQGLQSIYHLQNLTIEDLGALKIPEQYRMTIWRGLQDLK, the abundance fitness was -0.031 ± 0.14. As to YHADPSLVSFITGLGCPNCIEYFTSQGLQSIYHLQNLTIEDLGALKIPEQYRMTIWRGLQDLK, the abundance fitness came out at 0.039 ± 0.071. In the case of YHADPSLVSFHTGLGCPNCIEYFTSQGLQSIYHLQNLTIEDLGALKIPEQYRMTIWRGLQDLK, the abundance fitness is -0.806 ± 0.34. In the case of YHADPSLVSFATGLGCPNCIEYFTSQGLQSIYHLQNLTIEDLGALKIPEQYRMTIWRGLQDLK it was -0.599 ± 0.07; in that of YHADPSLVSFNTGLGCPNCIEYFTSQGLQSIYHLQNLTIEDLGALKIPEQYRMTIWRGLQDLK, -1.12 ± 0.37; in that of YHADPSLVSFMTGLGCPNCIEYFTSQGLQSIYHLQNLTIEDLGALKIPEQYRMTIWRGLQDLK, -0.115 ± 0.043. Regarding YHADPSLVSCLTGLGCPNCIEYFTSQGLQSIYHLQNLTIEDLGALKIPEQYRMTIWRGLQDLK, the abundance fitness was -0.588 ± 0.14. With YHADPSLVSWLTGLGCPNCIEYFTSQGLQSIYHLQNLTIEDLGALKIPEQYRMTIWRGLQDLK, the abundance fitness was -0.296 ± 0.037.

Turning to YHADPSLVSSLTGLGCPNCIEYFTSQGLQSIYHLQNLTIEDLGALKIPEQYRMTIWRGLQDLK, the abundance fitness was -0.867 ± 0.083. Turning to YHADPSLVSDLTGLGCPNCIEYFTSQGLQSIYHLQNLTIEDLGALKIPEQYRMTIWRGLQDLK, the abundance fitness was -1.06 ± 0.16. With YHADPSLVSHLTGLGCPNCIEYFTSQGLQSIYHLQNLTIEDLGALKIPEQYRMTIWRGLQDLK, the abundance fitness is -0.971 ± 0.18.

For the variant YHADPSLVSMLTGLGCPNCIEYFTSQGLQSIYHLQNLTIEDLGALKIPEQYRMTIWRGLQDLK, the abundance fitness was -0.424 ± 0.053. Regarding YHADPSLVSELTGLGCPNCIEYFTSQGLQSIYHLQNLTIEDLGALKIPEQYRMTIWRGLQDLK, the abundance fitness is -1.02 ± 0.17. On to YHADPSLVSLLTGLGCPNCIEYFTSQGLQSIYHLQNLTIEDLGALKIPEQYRMTIWRGLQDLK, for which the abundance fitness was -0.307 ± 0.038. YHADPSLVSQLTGLGCPNCIEYFTSQGLQSIYHLQNLTIEDLGALKIPEQYRMTIWRGLQDLK: the abundance fitness was -0.865 ± 0.21. In the case of YHADPSLVSYLTGLGCPNCIEYFTSQGLQSIYHLQNLTIEDLGALKIPEQYRMTIWRGLQDLK it was -0.294 ± 0.074.

As for YHADPSLVSKLTGLGCPNCIEYFTSQGLQSIYHLQNLTIEDLGALKIPEQYRMTIWRGLQDLK, the abundance fitness was -1.32 ± 0.31. Under YHADPSLVSRLTGLGCPNCIEYFTSQGLQSIYHLQNLTIEDLGALKIPEQYRMTIWRGLQDLK stands -0.962 ± 0.079.

The values above are taken from the Human Domainome abundance scans (Beltran et al. 2025).
